Target: T1, Ski2 (S. cerevisiae (endogenous in budding …, UniProt P35207 1-1287))
T1 sequence (looked up): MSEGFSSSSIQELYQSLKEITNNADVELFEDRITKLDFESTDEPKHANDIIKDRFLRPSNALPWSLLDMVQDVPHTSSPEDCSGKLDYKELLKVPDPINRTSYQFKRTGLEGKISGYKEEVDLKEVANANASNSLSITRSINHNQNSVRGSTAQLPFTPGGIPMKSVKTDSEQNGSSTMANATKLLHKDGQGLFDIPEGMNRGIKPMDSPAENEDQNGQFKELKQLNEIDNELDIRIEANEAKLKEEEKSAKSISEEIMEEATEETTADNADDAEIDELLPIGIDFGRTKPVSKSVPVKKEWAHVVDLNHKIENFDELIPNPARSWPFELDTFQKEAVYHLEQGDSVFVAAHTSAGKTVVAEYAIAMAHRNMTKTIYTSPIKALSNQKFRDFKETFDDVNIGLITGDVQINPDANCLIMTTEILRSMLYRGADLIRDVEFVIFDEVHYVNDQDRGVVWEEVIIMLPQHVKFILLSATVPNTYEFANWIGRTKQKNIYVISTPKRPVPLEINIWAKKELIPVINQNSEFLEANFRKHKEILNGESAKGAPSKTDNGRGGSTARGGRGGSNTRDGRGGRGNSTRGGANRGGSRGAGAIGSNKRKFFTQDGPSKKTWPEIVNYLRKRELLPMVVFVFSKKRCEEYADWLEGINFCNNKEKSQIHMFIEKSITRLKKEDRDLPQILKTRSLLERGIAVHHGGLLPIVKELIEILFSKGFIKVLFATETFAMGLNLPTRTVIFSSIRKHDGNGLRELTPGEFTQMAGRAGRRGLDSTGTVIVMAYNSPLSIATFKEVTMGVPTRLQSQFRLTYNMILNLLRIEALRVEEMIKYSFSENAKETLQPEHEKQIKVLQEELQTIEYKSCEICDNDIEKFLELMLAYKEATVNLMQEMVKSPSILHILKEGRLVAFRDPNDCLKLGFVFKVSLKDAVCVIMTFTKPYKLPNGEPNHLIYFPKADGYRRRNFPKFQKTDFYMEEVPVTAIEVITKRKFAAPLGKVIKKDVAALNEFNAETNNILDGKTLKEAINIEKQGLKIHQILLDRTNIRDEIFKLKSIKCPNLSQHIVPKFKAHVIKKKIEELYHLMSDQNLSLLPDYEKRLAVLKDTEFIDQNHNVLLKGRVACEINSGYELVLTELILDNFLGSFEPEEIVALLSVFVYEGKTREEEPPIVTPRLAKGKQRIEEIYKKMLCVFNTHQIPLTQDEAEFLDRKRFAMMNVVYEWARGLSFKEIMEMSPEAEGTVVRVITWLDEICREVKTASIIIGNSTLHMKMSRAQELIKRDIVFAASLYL
Assay: native MS

B1: Ski3 (natural protein, UniProt P17883 1-1432, looked up)
chain: MSDIKQLLKEAKQELTNRDYEETIEISEKVLKLDPDNYFAHIFLGKALSSLPASNNVSSNRNLERATNHYVSAAKLVPDNLLAWKGLFLLFRTTEVVPDILSYDEYFDLCGQYADALLKQEQSQVELINDIKLLKKTHPDCQKAFYQHLKPGSLMAETIGRHLSTPQDALLNLIKILSNIETTEIGKTLSQNRLKLKASDPDYQIKLNSFSWEIIKNSEIDQLYNQLVNILADDQKRSEIENQWLEYRIKVLKSMPLDVKKDFFTKVKEMVEDMVLVNHQSLLAWQKYFEWTDYEDLDNMDAPLIIKYFKKFPKDPLAMILYSWLSSKLSKYDIKSLESANKPPEGHKKTEKETDIKDVDETNEDEVKDRVEDEVKDRVEDEVKDQDEEAKEDEEEDLDDIEIGLLEEEVVTVLTENIVKCKNNILAHRILCQYYLLTKEYEAALPYIKNGISLIAYNIKDLGVHLPLTKREFSLDLATVYTYVDAPKDHNAALKLYDNILSGDFSNIQAKMGKGIIFIERKNWKDAMTLLTQVHEQSPNNLEVLSELSWSKAHMGYMDEALAGLDTVIKGIKGMDLRSIDFRALNLWRQAKVYIMKHASINDAKQENVKCAFKLLIQSIKILDTFAPGFSTLGDIYCHYYKDHLRAFKCYFKAFDLDAGDYTAAKYITETYASKPNWQAASSIASRLIKGEKAKAELRSNNWPFRVVGIAHLEKQEESDSIEWFQSALRVDPNDVESWVGLGQAYHACGRIEASIKVFDKAIQLRPSHTFAQYFKAISLCDVGEYLESLDILEKVCQEAATEESFQIGLVEVLMRCSLDLYSQGFLLKSVSIAKDTIERIKIIISELKCENQQVWIYLSQVLRLFIWIESKVDTLPVESLVSIFENSQFSGSEEIDSVDNIKIDTLLDSTTDDNVSIACKFLILASKYSVSDQKFTDIAGTVRASYWYNIGISELTAFITLKEPQYRDAAIFAFKKSIQLQSNTSETWIGLGIATMDINFRVSQHCFIKATALEPKATNTWFNLAMLGLKKKDTEFAQQVLNKLQSLAPQDSSPWLGMALILEEQGDIIGSSKLFAHSFILSNGRSKAAQFMYAKNVLENHINNGDDERDIETVEKLTTASIALEQFFKKSPDSQFALQCALLTLERLHHYENANELANRLIGILEKKFEKTQDERELFNFAIIKGQFARIHLGLGNFELSIENADLSQGIISESSDEKSMKTKISNHICLGLSYFFLNDFDQTLNQFQELLSISKDSKHLVVLIAKVLYDVGESDTKEIALQELTEYIATSGADLLVTLTIAAMSILDDKREDLSIILEELKALPLSKQIIDKHKDAPYLIEEITKRLYRNDTGKQVWQRSAYFFPNNLKVWERLDKNIQRRIASNGQNKVTAEEMSKLYCESKNLRSIQRGMFLCPWNVTAVKALNECF
B1 was tested, and the “stoichiometry N” value was 1.
